Measurements taken from patent publication US6967100B2, “Pancreatic islet cell growth factors” (The Walter and Eliza Hall Institute of Medical Research, priority 2000, dated 2005).

Key:
Assay type in all cases: cell-based
[1] = tested on: 13.5 dpc fetal mouse pancreas cells; assay: Colony formation of 13.5 dpc fetal mouse pancreas cells cultured with BMPs and laminin-1; settings: for proliferation or colony formation, candidate growth factors individually: 13.5 dpc fetal pancreas cells; for proliferation and colony formation of fetal pancreas cells: in the presence (but not absence) of laminin-1, four days culture
Protocol: Dissociated fetal pancreas cells were prepared from 13.5 dpc CBA mice. Pregnant mice at 13.5 dpc were killed by cervical dislocation and fetuses collected into ice cold sterile mouse tonicity phosphate-buffered saline (MTPBS). Fetal pancreata were harvested under an Olympus dissection microscope into RPMI 1640 medium and dissociated in a shaking water bath at 37° C. for 11 mins in Ca^2+/Mg^2+-free PBS containing 0.5% v/v trypsin/EDTA as described for testis by Bucci et al. (1986). After dissociation, trypsin was inactivated by addition of 8% w/v bovine serum albumin (BSA, fraction V) (Sigma, St. Louis, USA). The tissue was aspirated several times in a pipette, passed through a 27 gauge needle to make a single cell suspension and then rinsed in 10 μg/ml DNAse I (Promega, Madison, USA) in RPMI 1640 for 10 mins to reduce cellular aggregates. Cell suspensions were filtered through a 70-100 μm steel mesh, centrifuged at 400×g for 5 mins and the supernatant discarded. The cell pellet was resuspended in HYBRIDOMA medium and stored on ice. Cells were counted under a haemocytometer and viability was determined by exclusion of 0.2% v/v trypan blue dye. Pancreatic cells were plated in 8 chamber slides (Nunc) at 1.5×10^4 cells/well in 0.3 ml HYBRIDOMA medium 500 UI/ml penicillin and 500 μg/ml streptomycin. The cells were cultured in 10% v/v CO2, 90% v/v air at 37° C. with 100% humidity for four days in the presence of factors such as laminin-1 and BMPs.
After four days in culture, cells were washed twice with warm MT-PBS and fixed with a 4% v/v paraformaldehye for 10 mins. In some cases, 100 μM BrdU was added to label proliferating cells 12 hours before fixation and detection with monoclonal antibody to BrdU and FITC-labelled rabbit anti-mouse immunoglobulin. For immunoperoxidase staining, endogenous peroxidase was blocked by 3% v/v H2O2 in methanol for 8 mins and, prior to addition of primary antibody, non-specific protein binding was blocked by incubation for at least 30 mins in MTPBS containing 2% w/v BSA or 2% v/v normal rabbit serum. Controls were performed by replacing primary antibody with pre-immune serum from the appropriate species. Tissue sections or cells were incubated with primary antibodies for 90 min RT, followed by three thorough washes with MTPBS. For immunoperoxidase staining, horseradish peroxidase-conjugated rabbit anti-guinea pig, swine anti-rabbit or rabbit anti-mouse immunoglobulins (Dako) diluted 1:80 were added for 30 mins at RT followed by thorough washes; colour was developed with 3,3′-diaminobenzidine/H2O2 for 4-8 mins and slides counterstained with haematoxylin.
A pancreatic cell colony was defined as a spherical collection of 20 cells. Colonies were counted under a×10 power objective with an eyepiece graticule.

[2] = tested on: C2C12 myoblasts; assay: C2C12 cell BMP bioassay (transformation of myoblasts into alkaline phosphatase-containing osteoblasts); settings: for BMP activity of conditioned medium (alkaline phosphatase activity of C2C12 cells): conditioned medium of stably transfected CHO cells, compared to medium of untransfected CHO cells
Protocol: BMP activity was measured in the C2C12 cell bioassay, in which BMPs transform C2C12 myoblasts into alkaline phosphatase-containing osteoblasts (Katagiri et al., 1994). Briefly, CHO cells were plated at a density of around 5×10^6 per 75 cm^2 flask in serum-free HYBRIDOMA medium (Gibco BRL Life Technology) (SFHM) containing 10% v/v FCS. Once the cells had reached confluency, the medium was removed, the cells washed twice with SFHM and 10 ml of SFHM then added to each flask. The cells were cultured for four days and the conditioned medium collected, filtered through a 2 micron filter and stored at 4° C.
2×10^3 C2C12 cells were plated into each well of a 96-well tissue culture plate in DME/10% v/v FCS. Twenty-four hours later, the medium was removed and replaced with 100 μl SFHM/1% v/v FCS. 50 μl of each conditioned medium was added in duplicate to the top row of the 96-well plate and the volume of these wells then made up to 200 μl. Using a multi-channel pipette, 100 μl from each well was then serially transferred to subsequent rows thus diluting the conditioned medium 2-fold with each transfer. After incubation for five days, the media were discarded and the cells washed with normal saline. Cells were lysed for 10 mins at room temperature (RT) in 100 μl 0.5% v/v TritonX-100 and 100 mM diethanolamine (pH 9.5) in normal saline. To each well was then added an aqueous solution containing 10 mM diethanolamine, 1 mg/ml p-nitrophenyl phosphate (PNPP) and 0.5 mM MgCl2. The yellow reaction product catalyzed by alkaline phosphatase was allowed to develop for 10-60 mins before reading absorption at 415 nm.

[3] = tested on: E15.5 CBA mouse fetal pancreas cells; assay: Cystic colony formation of E15.5 fetal mouse pancreas cells in laminin-1 overlay culture; settings: BMP alone
[4] = tested on: E15.5 CBA mouse fetal pancreas cells; assay: as above
Protocol: Pancreata were dissected from embryonic day (E)15.5 CBA mouse fetuses and dissociated into single cells as described (Jiang et al., 1999). Briefly, dissected pancreas was digested with trypsin/EDTA for 15 minutes at 37° C. in a shaking water bath. Cells were counted in a haemocytometer and viability determined by trypan blue dye exclusion. Each fetal pancreas yielded 50,000 viable cells (48,509±11,299, n=14). Dissociated cells were plated in 8 well chamber slides (Nunc, Naperville, USA) at 7.5×10^4 cells/well in 0.3 ml AIM V medium supplemented with N-2 (1:100, Gibco BRL Life Technologies, Gaithersburg, USA), 500 UI/ml penicillin and 500 μg/ml streptomycin. Laminin-1 (160 μg/ml), purified from murine Engelbreth-Holm-Swarm tumor basement membrane (Becton Dickinson Labware, Bedford, USA), was overlayed on cells in the presence of various growth factors. Cultures were incubated in 10% CO2 90% air at 37° C., for up to 6 days. Recombinant human BMP 6 and BMP 5, recombinant human TGF-β1 and recombinant activin A were purchased from R&D Systems (Minneapolis, USA). These factors, dissolved at a concentration of 10 ng/μl in mouse tonicity phosphate buffered saline (PBS) containing 0.1% w/v bovine serum albumin (BSA), were added at the start of culture. Phase contrast images of colonies were photographed with Olympus IX70 digitized camera.
Colony formation was assessed at day 6 of culture. A colony was defined as a cellular sphere ≧30 μm in diameter, which contained more than 20 cells. The number of colonies per well was counted directly under a inverted microscope at ×10. Colony counts were performed using a blind design.

B1: KGF: candidate growth factor (protein, UniProt P21781 32-194, looked up)
Fibroblast growth factor 7: CNDMTPEQMATNVNCSSPERHTRSYDYMEGGDIRVRRLFCRTQWYLRIDKRGKVKGTQEMKNNYNIMEIRTVAVGIVAIKGVESEFYLAMNKEGKLYAKKECNEDCNFKELILENHYNTYASAKWTHNGGEMFVALNQKGIPVRGKKTKKEQKTAHFLPMAIT
In the case of B1, the “proliferation or colony formation, candidate growth factors individually” value (from here on “proliferation or colony formation”) [1] is reported as “unable to promote proliferation or colony formation”.

B2: betacellulin: candidate growth factor (protein, UniProt P35070 32-111, looked up)
Betacellulin: DGNSTRSPETNGLLCGDPEENCAATTTQSKRKGHFSRCPKQYKHYCIKGRCRFVVAEQTPSCVCDEGYIGARCERVDLFY
In the case of B2, the “proliferation or colony formation” value [1] is reported as “unable to promote proliferation or colony formation”.

B3: BMP 4/4: BMP 4 homodimer, epitope-tagged recombinant mouse BMP in CHO cell conditioned medium (protein, UniProt P21275 293-408, looked up)
Bone morphogenetic protein 4: SPKHHPQRSRKKNKNCRRHSLYVDFSDVGWNDWIVAPPGYQAFYCHGDCPFPLADHLNSTNHAIVQTLVNSVNSSIPKACCVPTELSAISMLYLDEYDKVVLKNYQEMVVEGCGCR
modifications: epitope tag
For B3, the “BMP activity of conditioned medium (alkaline phosphatase activity of C2C12 cells)” value (“BMP activity of conditioned medium” below) [2] was “significant activity” and the “proliferation and colony formation of fetal pancreas cells” value (“proliferation and colony formation” below) [1] was “did not promote colony formation”.

B4: BMP 4/7: BMP 4 and BMP 7 heterodimer, recombinant mouse, CHO cell conditioned medium (protein, UniProt P21275 293-408; P23359 292-430, looked up)
Bone morphogenetic protein 4: B3 Bone morphogenetic protein 4
Bone morphogenetic protein 7: STGGKQRSQNRSKTPKNQEALRMASVAENSSSDQRQACKKHELYVSFRDLGWQDWIIAPEGYAAYYCEGECAFPLNSYMNATNHAIVQTLVHFINPDTVPKPCCAPTQLNAISVLYFDDSSNVILKKYRNMVVRACGCH
modifications: heterodimer
notes: BMP 4 and BMP 7 heterodimer, recombinant mouse, CHO cell conditioned medium
B4 was tested, and the “relative BMP bioactivity” value ([2]; FIG. 3, heterodimer versus homodimer) was “more active than 4/4 homodomers”, the “BMP activity of conditioned medium” value [2] was “significant activity” and the “proliferation and colony formation” value [1] was “stimulated fetal pancreas cells to proliferate and form colonies”.

B5: BMP 4/6: BMP 4 and BMP 6 heterodimer, recombinant mouse, CHO cell conditioned medium (protein, UniProt P21275 293-408; P20722 372-510, looked up)
Bone morphogenetic protein 4: B3 Bone morphogenetic protein 4
Bone morphogenetic protein 6: SASSRRRQQSRNRSTQSQDVSRGSGSSDYNGSELKTACKKHELYVSFQDLGWQDWIIAPKGYAANYCDGECSFPLNAHMNATNHAIVQTLVHLMNPEYVPKPCCAPTKLNAISVLYFDDNSNVILKKYRNMVVRACGCH
modifications: heterodimer
notes: BMP 4 and BMP 6 heterodimer, recombinant mouse, CHO cell conditioned medium
In the case of B5, the “BMP activity of conditioned medium” value [2] is reported as “significant activity” and the “proliferation and colony formation” value [1] is reported as “did not promote colony formation”.

B6: BMP 5: recombinant human BMP 5 purchased from R&D Systems (protein, UniProt P22003 317-454, looked up)
Bone morphogenetic protein 5: AANKRKNQNRNKSSSHQDSSRMSSVGDYNTSEQKQACKKHELYVSFRDLGWQDWIIAPEGYAAFYCDGECSFPLNAHMNATNHAIVQTLVHLMFPDHVPKPCCAPTKLNAISVLYFDDSSNVILKKYRNMVVRSCGCH
With B6 the “colony formation in the absence of laminin-1” value [3] was “no effect”, the “concentration of maximal stimulation of colony formation” value ([4]; laminin-1 160 μg/ml, day 6, fewer colonies at higher concentrations) was 100 ng/mL and the “formation of cystic colonies in the presence of laminin-1” value ([4]; laminin-1 160 μg/ml, up to 6 days) was “synergized with laminin-1 to promote formation of cystic colonies”.

B7: BMP 7/7: BMP 7 homodimer, epitope-tagged recombinant mouse BMP in CHO cell conditioned medium (protein, UniProt P23359 292-430, looked up)
Bone morphogenetic protein 7: B4 Bone morphogenetic protein 7
modifications: epitope tag
With B7 the “BMP activity of conditioned medium” value [2] was “significant activity” and the “proliferation and colony formation” value [1] was “stimulated fetal pancreas cells to proliferate and form colonies”.

B8: BMP 6/6: recombinant mouse BMP 6, myc epitope tagged, CHO cell conditioned medium; called BMP 6 in b118 (protein, UniProt P20722 372-510, looked up)
Bone morphogenetic protein 6: B5 Bone morphogenetic protein 6
modifications: myc epitope tag
notes: called BMP 6
B8 was tested, and the “proliferation and colony formation” value [1] was “stimulated fetal pancreas cells to proliferate and form colonies”.

B9: Activin A: recombinant activin A from R&D Systems (protein, UniProt P08476 311-426, looked up)
Inhibin beta A chain: GLECDGKVNICCKKQFFVSFKDIGWNDWIIAPSGYHANYCEGECPSHIAGTSGSSLSFHSTVINHYRMRGHSPFANLKSCCVPTKLRPMSMLYYDDGQNIIKKDIQNMIVEECGCS
With B9 the “BMP 6-induced colony formation” value ([4]; 100 ng/ml against BMP 6 10 ng/ml, laminin-1 160 μg/ml, p<0.01 (FIG. 10B)) was “antagonized”, the “colony formation relative to laminin-1 alone” value ([4]; 100 ng/ml, laminin-1 160 μg/ml (FIG. 10A)) was “suppressed colony formation to levels below that observed with laminin-1 alone” and the “proliferation or colony formation” value [1] was “unable to promote proliferation or colony formation”.
